Source: the DeepSol protein solubility set

Test: soluble on expression in E. coli; label from the status in PepcDB or PDB records

**Q.** For “MSLRKTQTYKSLPYNPALRDRAKALRKAGILHEALLWFELKSNKLNGLDFDRQKIIGNYIVDFYCAERSVVIEVDGSSHDSKQIEDRERDAYLNGLGLTVIRVLAKDVLRNLEGVVEFLKDHPALTGTPPEEGNKTALTGTPPEEGNKTALTGTPPEEGNKTALTGTPPEEGNKTALTGTPPEEGNKTTLTEAREEGHHHHHH”, which “soluble on expression in E. coli” value is on record?
**A.** soluble

**Q.** For “MGSDKIHHHHHHMNITNNRQYSWVGSREMCLDEISIKQYGEIVIGKYGGNISAGANKNEDGALVWSNGDWEFAAILDGHNSAESVDLVVNTIQKEYENIKEMMNESIDTVFRSIENHILTIFQSSSFKEKCQRIKGETACLLCVRKENYIWWLSIGDCLVYVFHDELHKLGQYALNQRHFYEWIGNVNTFDVPVPCYSSGIRELRTGNNRIVMVTDGVLEYGERRYETPLNLYNDMNRNNIKLEESVHHVLEHVHHQFGRDSATIISWDVENKGKATYPSDQPDKK”, which “soluble on expression in E. coli” value is on record?
**A.** not soluble

**Q.** With “MPTSLKDTVKLHNGVEMPWFGLGVFKVENGNEATESVKAAIKNGYRSIDTAAIYKNEEGVGIGIKESGVAREELFITSKVWNEDQGYETTLAAFEKSLERLQLDYLDLYLIHWPGKDKYKDTWRALEKLYKDGKIRAIGVSNFQVHHLEELLKDAEIKPMVNQVEFHPRLTQKELRDYCKGQGIQLEAWSPLMQGQLLDNEVLTQIAEKHNKSVAQVILRWDLQHGVVTIPKSIKEHRIIENADIFDFELSQEDMDKIDALNKDERVGPNPDELLF” as the sequence, how does the “soluble on expression in E. coli” value read?
**A.** soluble

**Q.** Which “soluble on expression in E. coli” value does the source give for “GPGSMGSGCSTESSTDVRCSFVGLMDEKKESWRGRLLGDIGKDPTGVTRDFPRTQVYVAAPNRNNYYREKQDHVSVLVLKDKEDESKYFSDRNERVRESLELLVELCGEDSSVIKSEWEKQQKDIPDSSSLLMTVLLESGMMRATEANTENGGAGGETDAVTNIQNGGGGYAPKYTVHSKALRLMQYMVQSVAFFSTQHVTDALRFSWCKHMQDVSWAVYVYTEGGACGKERNSSDEILVLRHMHTLRHYVGQSERSTHPRFEVDWACTFHIDLKRLLDANNTAAKEATFAPEGEVQRIDGELLAARIESPNRKLCRITSTWKKRRSELEGRLMECFGVELTKVDVLDENGPLSALNSGG” here?
**A.** not soluble

**Q.** Which “soluble on expression in E. coli” value does the source give for “MKNNPKTRYPLRLEESYAKNIQKAVKEIEKVSLYEFDKYLAPMIDDKNIVNDSNLINDGLFDAASKLIRNAQTYFLGILQNRTAQKIVRKHINSVNAFNKSNVNSQLSARGINPLQTEKWLDSYVQAKIAENISYVTNIRDDYSKKFEQVIYRGITEGKSSNEIREELVHQAGMSSDKAAFIARDQTGTILGQMNSERQKRAGFQAFRWSDSGDERVRDSHRERNGKIYFYADNPLLPGEEYNCRCVAEPVDDEELLEESIDLGLSNQEEHAVKTYVSSEAYKLNDKLRNGYQLDESDLKLIDNLDKALGKMTNYDGEVTRSMFFDSSDDLVRFANNYNLNDVVQFPEYISTTKDIYSEQDSLRFVIMSSTGKDLGSYNKSEKEVLFNRDAKFIVKDRYLLDGKPFIVLEEYHE” here?
**A.** not soluble

**Q.** Which “soluble on expression in E. coli” value does the source give for “MRYSDGRYEADIDITVEEWKSMLQNPKIFGPKYLDMILKWYYEIDHRATSQAIMAKYPSELKGTPYNGYVIGLTNRIIKYLNRFEVIGTQGNESKFIVPFEGWYEDYKEGNHFVWKVRDELVQAIEELGLVDEKKFPSEEEELKSYSIENRKDGKIIMRYTTQYERNPINRRNAIRIHGTVCQGCGFDFEKVYGEIGKDYIEVHHIKPLYEGGGSVPINAETDLICVCANCHRMIHRRKDKVLSLKELQKLLLANKNLEHHHHHH” here?
**A.** soluble

**Q.** Which “soluble on expression in E. coli” value does the source give for “QLSAGCGELSPQIGGGWLWSSMHRSGRYGTQQQRAGSKTAGPPCQWSRMASEGTNIPSPVVRQIDKQFLICSICLERYKNPKVLPCLHTFCERCLQNYIPAHSLTLSCPVCRQTSILPEKGVAALQNNFFITNLMDVLQRTPGSNAEESSILETVTAVAAGKPLSCPNHDGNVMEFYCQSCETAMCRECTEGEHAEHPTVPLKDVVEQHKASLQVQLDAVNKRLPEIDSALQFISEIIHQLTNQKASIVDDIHSTFDELQKTLNVRKSVLLMELEVNYGLKHKVLQSQLDTLLQGQESIKSCSNFTAQALNHGTETEVLLVKKQMSEKLNELADQDFPLHPRENDQLDFIVETEGLKKSIHNLGTILTTNAVASETVATGEGLRQTIIGQPMSVTITTKDKDGELCKTGNAYLTAELSTPDGSVADGEILDNKNGTYEFLYTVQKEGDFTLSLRLYDQHIRGSPFKLKVIRSADVSPTTEGVKRRVKSPGSGHVKQKAVKRPASMYSTGKRKENPIEDDLIFRVGTKGRNKGEFTNLQGVAASTNGKILIADSNNQCVQIFSNDGQFKSRFGIRGRSPGQLQRPTGVAVHPSGDIIIADYDNKWVSIFSSDGKFKTKIGSGKLMGPKGVSVDRNGHIIVVDNKACCVFIFQPNGKIVTRFGSRGNGDRQFAGPHFAAVNSNNEIIITDFHNHSVKVFNQEGEFMLKFGSNGEGNGQFNAPTGVAVDSNGNIIVADWGNSRIQVFDGSGSFLSYINTSADPLYGPQGLALTSDGHVVVADSGNHCFKVYRYLQ” here?
**A.** soluble

**Q.** With “MLVAGAGALCLTLSGCAGAGSLGASDQTITIAMVSNSQMQDAQKLASQFEEENPDIDLKFVTLSENQARAKITASTATGGGEFDVVMISNYETPQWAKYGWLKNLSEYAEATEGYDEADFIPTLRESLSYEGNMYSVPFYGESSFLMYRKDLFEQAGITLSEKPTWTEVATAAKQLDSEDMAGICLRGKPGWGELLAPLDTVINTFGGRWFDEDWNAQLTSPEVERAVQFYVDLVREYGEPGAATSGFGECATQLAQGQVAMWYDSTSAVSTLEDPASSAVVGKIGYAPAPIEVKDNSGWLYSWSLGIPESSENPDAAWKFISWMTDKQYIRTVGEDLGWERVPPGSRLSTYEIPEYKEASAAYGPLTLEAIEDATPNAPTVQPVPYTGVQFLAIPEFQDLGTRVSQQISAAIAGQQTVPEALAQAQQYAEVVGATYREDR” as the sequence, how does the “soluble on expression in E. coli” value read?
**A.** not soluble

**Q.** With “MGSDKIHHHHHHMIQLAFTKTEISADTAVKQGAALRQMNELLERLSTAPKYHTLTKKDRAQLSREGYAADLVDNLVLITQRKEESTVTDNDNLVVGFTYAAFDPALYANETLKNHFKQMSQGCCCFCESFLMPTASGHISHYRPVQQLDLEGVEHTKPNSECSPYFSEAYQQENLVYVCSGCDVTHKAGRFPIAGERFPHVALSTENALLVNPYQENPRDFIRFNLCNGHAYPFDQACAFYADTQKLTEQDVEALLWKTPSAIPNQVDEAGALLTDSGVEQAFTFWLKSEASQRQSSRGAVTIVTLGLNRSDLVLARLMTLKQYHNDFITHKAALAQPLMPEDIATIAYRSLALDAFATWQSIANGTGSNLANNEGTNKGTNKGTNIGTNIGASEDTNVANSLPLMANTVLKLREQANNTVENPELDILLPSWFRCCLSYLVLESELQQTGKRRLVFLCNQDRLYGETDTEKCIFLSIKWQRDLHKVIKVRSKRNIWEASFSELANSRPHELINLFANNDVWVEGNFQPLA” as the sequence, how does the “soluble on expression in E. coli” value read?
**A.** not soluble

**Q.** For “MAKKVAIYTRVSTTNQAEEGFSIDEQIDRLTKYAEAMGWQVSDTYTDAGFSGAKLERPAMQRLINDIENKAFDTVLVYKLDRLSRSVRDTLYLVKDVFTKNKIDFISLNESIDTSSAMGSLFLTILSAINEFERELEY”, which “soluble on expression in E. coli” value is on record?
**A.** soluble

**Q.** With “MAHHHHHHMMRERAAALDDLNALLTVNKDHPQGLALRMSLNTQLGNLVDAHRDGKHLVRVYKALNKPDKSQQTSEKVHRLERYTVRWTALSDLWSQPVGAYTAATNDAVLMRKYRECVDLLARIIHEFSMESVELRLRRAACALAADDNIAATQELKYVTQRSPQNLDAIALNAQALRRLGALDQSMSELRRCLNLDPEYAPCANLHKLIRQQQRMTKNIEKRLQEKKFEAVVQLIAETRAAEPHAPYEEQLAAWHCEALVSLRSTDEGIRVCQALVDRYDGANNPTVFDAHIRLAELHLLDDNIAAAEAALQKAREIRQHDGKVEEMRLKIEKLKRTGPRKDYYKILGLKKTASAQEIRRAYRKLAKSSHPDQLRSKDMTDREREKQEKMFRDVNEAKEVLLDEEKRARYDSGEDVNQPAGQRGEPFFGSHFAGGFPGGFPGGFPGGFPGGFPGGFHQQRDGGVHQQFFFFNREN” as the sequence, how does the “soluble on expression in E. coli” value read?
**A.** not soluble

**Q.** With “VVIRVLFRPVSLIPVNNSSTPQSQGPISRRLALTALGFGVLAPNVLVACAGKVTKLAEKRPPPAPRLTFRPADSAADVVPIAPISVEVGDGWFQRVALTNSAGKVVAGAYSRDRTIYTITEPLGYDTTYTWSGSAVGHDGKAVPVAGKFTTVAPVKTINAGFQLADGQTVGIAAPVIIQFDSPISDKAAVERALTVTTDPPVEGGWAWLPDEAQGARVHWRPREYYPAGTTVDVDAKLYGLPFGDGAYGAQDMSLHFQIGRRQVVKAEVSSHRIQVVTDAGVIMDFPCSYGEADLARNVTRNGIHVVTEKYSDFYMSNPAAGYSHIHERWAVRISNNGEFIHANPMSAGAQGNSNVTNGCINLSTENAEQYYRSAVYGDPVEVTGSSIQLSYADGDIWDWAVDWDTWVSMSALPPPAAKPAATQIPVTAPVTPSDAPTPSGTPTTTNGPGG” as the sequence, how does the “soluble on expression in E. coli” value read?
**A.** not soluble

**Q.** For “MRYRDFDIFKFWFRAVEKFAPWVHKIYLITDNQVPDWLDTRNSKLTVIDHRDIMDADWLPTFNSNAIELNAYKIKNLSEKFVLFNDDTILNSYVDKVDFFDENYPKDIYVESPIMATKGSVDHIMVNNVEIINEFFEKKNFYKKNLTKVFNPKIGIKLLRTLALLPSSKFAGFWNSHLPISYNKTTFETVWSNCEGKLVATSKNKFRTAYDVSHWLMRYWQLASGNYHLQNNIGKVYDLSSQNIDEVVTQLQRSHSKIICLNDNDELDDYEGVKGKLVTTLNEKFSEKSKFELLEHHHHHH”, which “soluble on expression in E. coli” value is on record?
**A.** not soluble

**Q.** Which “soluble on expression in E. coli” value does the source give for “MSLQAHCEEFRVCAMCRVLRVNRSGYYAWLCSPNSERAKEDDRLLGLIKHHWLASGSVYGHRKITTDLRDLGERCSRHRVHRLMRTEGLRAQVGYGRKPRFHGGMQCKAAANLLDRQFDVTEPDTAWASDFTFIRTHEGWMYLAVVIDLFSRQVVGWAMRDRADTELVVQAVLSAVWRRKPNTGCLVHSDQGSVYTSDDWRSFLASHGLVCSMSRRGNCHDNAPVESFFGLLKRERIRRRTYPTKDAARAEVFDYIEMFYNPNRRHGSTGDLSPVEFERRYAQRGSEGHHHHHH” here?
**A.** not soluble

**Q.** Which “soluble on expression in E. coli” value does the source give for “MGSDKIHHHHHHMLNLDFAKRVIIETAKQEWVDSPASGVRRKLLEREEAERGRATSIVEYKPGASFSTHEHPLGEEILVLEGVFSDENGDYPAGTYIRNPPGSSHAPFSKDGCKLLVKLHQFQPTDTQVVRINTHEAEWLPGQGGLEVMPLHSHGTEHVALVKWPANEVFKPHRHLGGEEILVLSGEFCDEHGRYPEGTWMRSPHTSVHHPFVDRETIIWVKTGHLG” here?
**A.** not soluble

**Q.** With “MSLKNTFVYQAEKPVIKLLQITDPHLFKDESAELLGVNTQASFAQVLKEIQQENNEFDVILATGDLVQDSSDEGYIRFVEMMKPFNKPVFWIPGNHDFQPKMAEFLNQPPMNAAKHLLLGEHWQALLLDSQVYGVPHGQLSQHQLDLLKETLGKNPERYTLVVLHHHLLPTNSAWLDQHNLRNSHELAEVLAPFTNVKAILYGHIHQEVNSEWNGYQVMATPATCIQFKPDCQYFSLDTLQPGWREIELHSDGSIRTEVKRIQQAEFFPNMQEEGYEGGSHHHHHH” as the sequence, how does the “soluble on expression in E. coli” value read?
**A.** soluble

**Q.** For “MLTWSTSATSSKPTLRGKIPNSKAAEEFLDSWDNAVFDGKSTGDPELDREASLWRDKFPHLRITGSRFESQKVTHPIPVDSLSFQKSIIQHSKSANAIREKLPKIDNFKKK”, which “soluble on expression in E. coli” value is on record?
**A.** not soluble

**Q.** With “MWLSSEELSAKKTACHVRNVESNKEFADSDIVASFVHNRPKDLKNLTFERHGKGGRKKAPIFSVKGDISEHVVEVGADVNCLDEGFDFAVALVDKRTGEATYRPARFYSFESKFSEDIEKIFSDKKESSSEEYKNDFSIGAEKWAEKRRQLTSNFGSSKKIKMDEAAQRRTINQETLDEMRKTAFASNSNVKTEDGAADVKLENITMMNKAESSILPPAVQTELSRDIYPISLFLEDIEIDAIESIATELMEKKKKEKLEAGIPECVTLIMYNEKTKQRAAAYLLLSTMIEILTKMGKQRQLLRKDLSELKMPDILRQKVQAQFFNDSTNEKGYTGRGAERIRLNVTDYDRFIAHTLALALTLAPEHKVPITPFQQALSYQPSKLEKMFQALGADLIRLDVASAQTLRSLRAAILLKPPSLEQKGPRKIIRR” as the sequence, how does the “soluble on expression in E. coli” value read?
**A.** not soluble
